Assays:
in vivo = assay: in vivo; parameters: species or system mice; details: male, C57BL/6J, mouse, iv, total radioactivity
Description: The inventors performed an in vivo evaluation to establish the biodistribution profile of ^225Ac-crown-αMSH in B16F10 tumor bearing mice. The B16F10 cell line (Mus musculus) was obtained commercially from ATCC (CRL-6475), and confirmed pathogen-free using the IMPACT 1 mouse profile (IDEXX BioResearch). The cells were cultured in DMEM media (StemCell Technologies) supplemented with 10% FBS, 100 U/mL penicillin and 100 µg/mL streptomycin at 37° C. in a humidified incubator containing 5% CO2. All animal experiments were conducted according to the guidelines established by Canadian Council on Animal Care and approved by Animal Ethics Committee of the University of British Columbia (UBC). Male C57BL/6J mice were acquired in-house and kept under pathogen-free conditions in the Animal Resource Centre at the BC Cancer Research Centre. The mice were anesthetised by inhalation of 2% isoflurane in 2 L/min oxygen, and 1 x10^6 B16F10 cells were inoculated subcutaneously at right flank. Two to four days after inoculation, the mice were transferred to the UBC Centre of Comparative Medicine, where biodistribution studies were performed once the tumors reached 8-10 mm. At the day of biodistribution mice were injected in the tail vein with ~20 kBq of ^225Accrown-αMSH (range: 10.8-31.6 kBq). After injection mice were allowed to roam freely in their cages, and they were euthanized in groups of 4 at 2 hours post injection by CO2 asphyxiation under isoflurane anesthesia. Blood was collected by cardiac puncture and a full biodistribution performed. Organs were cleaned from blood, weighed and the activity determined using a calibrated gamma counter (Packard Cobra II Auto-gamma counter, Perkin Elmer, Waltham, MA, USA) using three energy windows: 60-120 keV (window A), 180-260 keV (window B), and 400-480 keV (window C). Counting was performed after 6 hours post-sacrifice to ensure equilibrium of the ^225Ac decay chain. Counts were decay corrected from the time of sacrifice and total organ weights were used for the calculation of injected dose per gram of tissue (% ID/g). No differences were noted between the data calculated by three different windows; therefore, the biodistributions are reported using the data acquired using window A. The inventors evaluated biodistribution of ^225Ac-crown-αMSH in mice bearing B16F10 tumors at 2 h post-injection (p.i.) in two separate studies using a total of 5 groups of mice (Table 3). In the first study, three conditions were evaluated: ^225Ac-crown-αMSH prepared the day before (18 h) (A, FIG. 22, right bars), same day (4 h) (B), or same day (4 h) with Sep-Pak purification (C); in the second study the inventors compared 225Ac-crown-αMSH labelled 4 hours before with Sep-Pak purification and with the introduction of 0.1 M L-ascorbate (D, FIG. 22, left bars), or ^225Ac-crown-αMSH prepared 18 hours prior with L-ascorbate (E).

[1] = DTPA challenge (transmetallation) of ^225Ac-crown-αMSH on HPLC; assay type: physicochemical; details: addition of 1000 eq. of DTPA, in 7 hours
[2] = Stability of ^225Ac-labelled crown complex left at ambient temperature; assay type: physicochemical; details: up to 5 days and up to 8 days in a second experiment
Description: The reaction was largely complete after 10 min. […] To obtain the data shown in FIG. 14, labeling with crown was conducted at room temperature for a period of 15 minutes, while labelling with DOTA was conducted at 90° C. for a period of 15 minutes.

Work on CCCC[C@H](NC(=O)CN1CCC(NC(=O)CN2CCOCCN(CC(=O)O)CCN(CC(=O)O)CCOCCN(CC(=O)O)CC2)CC1)C(=O)N[C@H]1CC(=O)NCCCC[C@@H](C(N)=O)NC(=O)[C@H](Cc2c[nH]c3ccccc23)NC(=O)[C@H](CCCNC(=N)N)NC(=O)[C@@H](Cc2ccccc2)NC(=O)[C@H](Cc2c[nH]cn2)NC1=O [^225Ac-crown-αMSH, metal not drawn] yielded a tissue uptake at 2 h (in vivo; 20 kBq, Biodistribution: Bone) of 1.82 %ID/g, a tissue to tissue ratio at 2 h (in vivo; tumor to blood ratio) of 85.4 ± 46.8 and a tissue to tissue ratio at 2 h (in vivo; tumor to bone ratio) of 63.5 ± 13.2. The tissue to tissue ratio at 2 h (in vivo; tumor to kidneys ratio) was 2.8 ± 0.98, the tissue uptake at 2 h (in vivo; tumor uptake) was 12.7 ± 2.31 %ID/g and the “transmetallation on HPLC” value [1] was 64%.
With O=C(O)CN1CCOCCN(CC(=O)O)CCN(CC(=O)O)CCOCCN(CC(=O)O)CC1 [crown, 2,2’,2”,2’”-(1,10-dioxa-4,7,13,16-tetraazacyclooctadecane-4,7,13,16-tetrayl)tetraacetic acid] the “free ^225Ac observed” value [2] was < 2%.

Source: patent US20230270892A1, “CHELATOR COMPOSITIONS FOR RADIOMETALS AND METHODS OF USING SAME” (TRIUMF INC., priority 2020, published 2023)
